Data reported in paper PMC9413444 (ACS Nano, 2022).

Test system: intracranial glioblastoma GL261 in BL/6 mice
Settings: GL261 tumor-bearing BL/6 mice; IV; 2 h post-injection (Figure 2B)

poly(β-L-malic acid)-trileucine polymer [P/LLL(40%)]
increase of fluorescence in tumor tissue from dose 0.25X to dose 1.0X: increases proportionally with the dose administered
